PMC9352680, “A comprehensive thermodynamic model for RNA binding by the Saccharomyces cerevisiae Pumilio protein PUF4”

T1: PUF4 RNA-binding domain (Saccharomyces cerevisiae, UniProt P25339 537-888)
T1 sequence: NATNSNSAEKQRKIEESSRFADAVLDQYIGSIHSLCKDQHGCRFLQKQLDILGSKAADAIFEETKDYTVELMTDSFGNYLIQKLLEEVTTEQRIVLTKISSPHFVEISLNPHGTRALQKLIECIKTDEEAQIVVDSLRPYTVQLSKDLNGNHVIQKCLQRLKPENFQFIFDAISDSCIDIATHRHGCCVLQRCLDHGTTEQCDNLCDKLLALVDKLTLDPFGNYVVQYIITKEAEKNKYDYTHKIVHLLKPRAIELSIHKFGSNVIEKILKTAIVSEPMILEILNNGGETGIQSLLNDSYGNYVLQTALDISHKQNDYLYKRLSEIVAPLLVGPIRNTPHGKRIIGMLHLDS


Target: T1, PUF4 RNA-binding domain
Assay: Mg; RNA-MaP; 20 mM Na-HEPES pH 7.4, 30 mM KOAc, 0.75 mM MgCl2, 0.1% Tween-20, 5% glycerol, 0.1 mg/mL BSA, 2 mM DTT; 25 C; 0.0125-409.6 nM protein
Details: tags: N-His6-TEV cleaved; C-SNAP kept, Cy3B-labelled; label: tethered on chip by stalled RNA polymerase

Binder	Kd
Ib_S2_P3E.1_K3.1_C3.1_H3.1_[G2C]_A3.1_[A6C]_F3.1_T3.1 (ssRNA) RNA: UUUGAUUAAUAUGAUAUCGUUCUUUCUUCUAUCUAUUCUUUCUCGAUAUCAUAUUAAUCUUU	> 2300 nM
Ib_S2_P3E.1_K3.1_C3.1_H3.1_[G2A]_A3.1_[A6G]_F3.1_T3.1 (ssRNA) RNA: UUUGAUUAAUAUGAUAUCGUUCUUUCUUAUAUGUAUUCUUUCUCGAUAUCAUAUUAAUCUUU	76.2 nM
Ib_S2_P3E.1_K3.1_C3.1_H3.1_[G2T]_A3.1_[A6G]_F3.1_T3.1 (ssRNA) RNA: UUUGAUUAAUAUGAUAUCGUUCUUUCUUUUAUGUAUUCUUUCUCGAUAUCAUAUUAAUCUUU	189 nM
Ib_S2_P3E.1_K3.1_C3.1_H3.1_[A4G]_A3.1_[T5C]_F3.1_T3.1 (ssRNA) RNA: UUUGAUUAAUAUGAUAUCGUUCUUUCUUGUGCAUAUUCUUUCUCGAUAUCAUAUUAAUCUUU	24.6 nM
Ie_S4_P4E.1_K4.1_C4.1_H4.1_[+3CCTC]_A4.1_F4.1_T4.1 (ssRNA) RNA: UUUGACAACUGAUCGUUCUUUCUUGUCCUCAUAUUAUUCUUUCUCGAUCAGUUGUCUUU	66.1 nM
Ie_S4_P4E.1_K4.1_C4.1_H4.1_A4.1_[+6CTCT]_F4.1_T4.1 (ssRNA) RNA: UUUGACAACUGAUCGUUCUUUCUUGUAUACUCUUUAUUCUUUCUCGAUCAGUUGUCUUU	12 nM
Ie_S4_P4E.1_K4.1_C4.1_H4.1_[+4TCTC]_A4.1_F4.1_T4.1 (ssRNA) RNA: UUUGACAACUGAUCGUUCUUUCUUGUAUCUCUAUUAUUCUUUCUCGAUCAGUUGUCUUU	4.78 nM
Ie_S4_P4E.1_K4.1_C4.1_H4.1_A4.1_[+5TCTC]_F4.1_T4.1 (ssRNA) RNA: UUUGACAACUGAUCGUUCUUUCUUGUAUUCUCAUUAUUCUUUCUCGAUCAGUUGUCUUU	35.8 nM
Ie_S4_P4E.1_K4.1_C4.1_H4.1_A4.1_[+6TCTC]_F4.1_T4.1 (ssRNA) RNA: UUUGACAACUGAUCGUUCUUUCUUGUAUAUCUCUUAUUCUUUCUCGAUCAGUUGUCUUU	15.4 nM
Ie_S4_P4E.1_K4.1_C4.1_H4.1_A4.1_[+5CCTC]_F4.1_T4.1 (ssRNA) RNA: UUUGACAACUGAUCGUUCUUUCUUGUAUCCUCAUUAUUCUUUCUCGAUCAGUUGUCUUU	43.3 nM
Ie_S4_P4E.1_K4.1_C4.1_H4.1_A4.1_[+5TTCC]_F4.1_T4.1 (ssRNA) RNA: UUUGACAACUGAUCGUUCUUUCUUGUAUUUCCAUUAUUCUUUCUCGAUCAGUUGUCUUU	54 nM
Ie_S4_P5E.1_K5.1_C5.1_H5.1_A5.1_[+5CCC]_F5.1_T5.1 (ssRNA) RNA: UUUGACAACUGAUCGUUCUUUCUUGUAUCCCUAUUAUUCUUUCUCGAUCAGUUGUCUUU	7.89 nM
Ie_S4_P4E.1_K4.1_C4.1_H4.1_[+4CT]_A4.1_F4.1_T4.1 (ssRNA) RNA: UUUGACAACUGAUCGUUCUUUCUUGUACUUAUUAUUCUUUCUCGAUCAGUUGUCUUU	4.23 nM
Ie_S4_P4E.1_K4.1_C4.1_H4.1_[+4TC]_A4.1_F4.1_T4.1 (ssRNA) RNA: UUUGACAACUGAUCGUUCUUUCUUGUAUCUAUUAUUCUUUCUCGAUCAGUUGUCUUU	6.67 nM
Ie_S4_P4E.1_K4.1_C4.1_H4.1_A4.1_[+6TC]_F4.1_T4.1 (ssRNA) RNA: UUUGACAACUGAUCGUUCUUUCUUGUAUAUCUUAUUCUUUCUCGAUCAGUUGUCUUU	4.82 nM
Ie_S4_P4E.1_K4.1_C4.1_H4.1_A4.1_[+5CC]_F4.1_T4.1 (ssRNA) RNA: UUUGACAACUGAUCGUUCUUUCUUGUAUCCAUUAUUCUUUCUCGAUCAGUUGUCUUU	13.5 nM
Ie_S4_P4E.1_K4.1_C4.1_H4.1_[+4T]_A4.1_F4.1_T4.1 (ssRNA) RNA: UUUGACAACUGAUCGUUCUUUCUUGUAUUAUUAUUCUUUCUCGAUCAGUUGUCUUU	4.34 nM
Ie_S4_P4E.1_K4.1_C4.1_H4.1_[+3TTCCT]_A4.1_F4.1_T4.1 (ssRNA) RNA: UUUGACAACUGAUCGUUCUUUCUUGUUUCCUAUAUUAUUCUUUCUCGAUCAGUUGUCUUU	22.7 nM

Binder	Kd
Ie_S4_P5E.1_K5.1_C5.1_H5.1_A5.1_[+5TCTC]_F5.1_T5.1 (ssRNA) RNA: UUUGACAACUGAUCGUUCUUUCUUGUAUUCUCUAUUAUUCUUUCUCGAUCAGUUGUCUUU	9.69 nM
Ie_S4_P4E.1_K4.1_C4.1_H4.1_[+4CTCTC]_A4.1_F4.1_T4.1 (ssRNA) RNA: UUUGACAACUGAUCGUUCUUUCUUGUACUCUCUAUUAUUCUUUCUCGAUCAGUUGUCUUU	6.67 nM
Ie_S4_P4E.1_K4.1_C4.1_H4.1_A4.1_[+5CCTCT]_F4.1_T4.1 (ssRNA) RNA: UUUGACAACUGAUCGUUCUUUCUUGUAUCCUCUAUUAUUCUUUCUCGAUCAGUUGUCUUU	10 nM
Ie_S4_P4E.1_K4.1_C4.1_H4.1_A4.1_[+5CTCTC]_F4.1_T4.1 (ssRNA) RNA: UUUGACAACUGAUCGUUCUUUCUUGUAUCUCUCAUUAUUCUUUCUCGAUCAGUUGUCUUU	42.8 nM
Ie_S4_P4E.1_K4.1_C4.1_H4.1_[+3CCCTT]_A4.1_F4.1_T4.1 (ssRNA) RNA: UUUGACAACUGAUCGUUCUUUCUUGUCCCUUAUAUUAUUCUUUCUCGAUCAGUUGUCUUU	51.6 nM
Ie_S4_P5E.1_K5.1_C5.1_H5.1_A5.1_[+5TTCC]_F5.1_T5.1 (ssRNA) RNA: UUUGACAACUGAUCGUUCUUUCUUGUAUUUCCUAUUAUUCUUUCUCGAUCAGUUGUCUUU	9.15 nM
Ie_S4_P4E.1_K4.1_C4.1_H4.1_[+3TCT]_A4.1_F4.1_T4.1 (ssRNA) RNA: UUUGACAACUGAUCGUUCUUUCUUGUUCUAUAUUAUUCUUUCUCGAUCAGUUGUCUUU	6.36 nM
Ie_S4_P4E.1_K4.1_C4.1_H4.1_A4.1_[+5TCC]_F4.1_T4.1 (ssRNA) RNA: UUUGACAACUGAUCGUUCUUUCUUGUAUUCCAUUAUUCUUUCUCGAUCAGUUGUCUUU	34.1 nM
Ie_S4_P4E.1_K4.1_C4.1_H4.1_A4.1_[+6CTC]_F4.1_T4.1 (ssRNA) RNA: UUUGACAACUGAUCGUUCUUUCUUGUAUACUCUUAUUCUUUCUCGAUCAGUUGUCUUU	10.3 nM
Ie_S4_P4E.1_K4.1_C4.1_H4.1_A4.1_[+5TTT]_F4.1_T4.1 (ssRNA) RNA: UUUGACAACUGAUCGUUCUUUCUUGUAUUUUAUUAUUCUUUCUCGAUCAGUUGUCUUU	1.72 nM
Ie_S4_P4E.1_K4.1_C4.1_H4.1_A4.1_[+6TTT]_F4.1_T4.1 (ssRNA) RNA: UUUGACAACUGAUCGUUCUUUCUUGUAUAUUUUUAUUCUUUCUCGAUCAGUUGUCUUU	4.94 nM
Ie_S4_P4E.1_K4.1_C4.1_H4.1_[+3TTT]_A4.1_F4.1_T4.1 (ssRNA) RNA: UUUGACAACUGAUCGUUCUUUCUUGUUUUAUAUUAUUCUUUCUCGAUCAGUUGUCUUU	12.7 nM
Ie_S4_P5E.1_K5.1_C5.1_H5.1_A5.1_[+5CC]_F5.1_T5.1 (ssRNA) RNA: UUUGACAACUGAUCGUUCUUUCUUGUAUCCUAUUAUUCUUUCUCGAUCAGUUGUCUUU	3.27 nM
Ie_S4_P5E.1_K5.1_C5.1_H5.1_A5.1_[+6CT]_F5.1_T5.1 (ssRNA) RNA: UUUGACAACUGAUCGUUCUUUCUUGUAUUCUAUUAUUCUUUCUCGAUCAGUUGUCUUU	2.21 nM
Ie_S4_P4E.1_K4.1_C4.1_H4.1_A4.1_[+6CCT]_F4.1_T4.1 (ssRNA) RNA: UUUGACAACUGAUCGUUCUUUCUUGUAUACCUUUAUUCUUUCUCGAUCAGUUGUCUUU	11.2 nM
Ie_S4_P4E.1_K4.1_C4.1_H4.1_A4.1_[+5TTC]_F4.1_T4.1 (ssRNA) RNA: UUUGACAACUGAUCGUUCUUUCUUGUAUUUCAUUAUUCUUUCUCGAUCAGUUGUCUUU	31.3 nM
Ie_S4_P4E.1_K4.1_C4.1_H4.1_[+4CTC]_A4.1_F4.1_T4.1 (ssRNA) RNA: UUUGACAACUGAUCGUUCUUUCUUGUACUCUAUUAUUCUUUCUCGAUCAGUUGUCUUU	1.44 nM
Ie_S4_P4E.1_K4.1_C4.1_H4.1_A4.1_[+6TCT]_F4.1_T4.1 (ssRNA) RNA: UUUGACAACUGAUCGUUCUUUCUUGUAUAUCUUUAUUCUUUCUCGAUCAGUUGUCUUU	8.73 nM
